The results in this text go back to patent US11827690B2, “ApoC-II mimetic peptides” (THE UNITED STATES OF AMERICA, as represented by the …, priority 2017, dated 2023).

For experiment [1], the target named is T1, bovine LPL (Bos taurus, UniProt P11151).
T1 sequence (P11151 29-478): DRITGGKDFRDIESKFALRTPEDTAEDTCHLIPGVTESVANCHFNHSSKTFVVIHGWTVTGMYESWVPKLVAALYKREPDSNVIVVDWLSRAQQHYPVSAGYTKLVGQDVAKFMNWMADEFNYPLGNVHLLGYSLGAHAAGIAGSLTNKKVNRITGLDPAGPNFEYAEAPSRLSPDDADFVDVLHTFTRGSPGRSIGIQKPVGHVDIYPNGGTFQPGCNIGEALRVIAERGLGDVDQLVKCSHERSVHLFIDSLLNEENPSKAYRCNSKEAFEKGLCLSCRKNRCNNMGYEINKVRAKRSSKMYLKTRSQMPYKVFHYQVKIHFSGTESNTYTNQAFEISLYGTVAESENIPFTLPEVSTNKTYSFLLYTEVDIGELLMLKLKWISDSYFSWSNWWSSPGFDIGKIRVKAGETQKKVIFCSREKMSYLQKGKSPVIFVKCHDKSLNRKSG
The experiment can be described thus: in vitro LPL assay using apoC-II deficient patient sera as substrate. The format is biochemical. The settings on record: for effect of lipidation on ability of C2thirdhelix to promote TG hydrolysis: FIG. 9; for promoting TG hydrolysis in the presence of LPL: FIG. 6; for LPL activation / TG hydrolysis: FIG. 52. As for the experimental part: (§1) Preparation of LPL: frozen stock of 10 μL of 0.5 mg/mL bovine LPL was used and diluted 1:100 (10 μL+990 μL of PBS).
Preparation of 20% Intralipid: 2000 mg/dL TG Intralipid was used to prepare 3 mg/dL TG Intralipid by diluting 1.5 μL of the stock with 998.5 μL PBS, or by diluting the stock 1:10 first and then mixing 15 μL of the diluted stock with 985 μL PBS. When apoC-II deficient human serum was used as a substrate, a frozen 10 μL aliquot of 1711 mg/dL (TG) was diluted by adding 990 μL PBS (1:100 dilution).
(§2) Preparation of free fatty acid (NEFA) assay: NEFA reagents were purchased from Wako Diagnostics, Wako Life Sciences, Inc. Reagent A was prepared by mixing Coloring Reagent A with Solvent A (225 μL per well). Reagent B was prepared by mixing Coloring Reagent B with Solvent B (75 μL per well). 5 nmoL oleic acid standard was prepared by diluting 20 μL of 1 mM oleic acid stock (WAKO NEFA standard solution) with 180 μL of 0.2% BSA.
(§3) LPL activity assay: 10 μL of Intralipid, human plasma sample, or mouse plasma sample was added in each well using repeater pipette. 10 μL (or 15 μL in the wells with no LPL control) of PBS and 10 μL of 1% BSA was added in each well using repeater pipette. 10 μL of peptides were added to corresponding wells in vertical triplicates (lowest concentration is on a left, highest is on the right). The plate was spun down at 1000 RPM for 10 seconds to mix and to remove the solutions from the wall of each well. The plate was put on ice and 5 μL of LPL was added using repeater pipette. The plate was spun down again at 1000 RPM for 10 seconds. The plate was covered and put back on ice for an incubation of 30 min. The plate was then moved to 37° C. and incubated for 1 hour.
(§4) Free fatty acids (NEFA) assay: 45 μL of 5 nmoL standard and 0 nmoL control (0.2% BSA) were added to corresponding wells. 225 μL of reagent A was added in each well using the reagent tray and 12-channel pipette. The plate was incubated for 10 min before 75 μL of reagent B was added to each well using the reagent tray and 12-channel pipette. The plate was not covered due to the high volume. The absorbance at 550 nm and 660 nm was measured.

For experiment [2], the system named is apoC-II knockout mice. The experiment is described as follows: plasma lipids of apoC-II knockout mice after peptide injection. The format is in vivo. As for the experimental part: C57Bl/6 mice (wild-type), apoC-II knockout (apoC-II KO) mice, and apoC-III transgenic mice were used for in vivo study. The C57Bl/6 mice (wild-type) were purchased from Taconic Biosciences Inc. The apoC-II KO mice were created as described in Sakurai et al., J Pharmacol Exp Ther 356:341-353, 2016. The apoC-III transgenic mice were generated by overexpressing human apoC-III in C57Bl/6 mice. See Qu et al., J. Lipid Res. 48:1476-1487, 2007.
Mice were fasted overnight (approximately 12 hours) before the study and 6 hours during the study, the next day. The apoC-II mimetic peptides were synthetically produced and free of biological contamination (not available as FDA approved compounds/treatment). […] W.) administered either subcutaneous injection (S.Q. or S.C.), intraperitoneal injection (I.P.) or intravenous injection (I.V.) (in a sterile, pharmaceutical grade PBS solution at a volume ≤200 μL) as described in Sakurai et al., J Pharmacol Exp Ther 356:341-353, 2016.

In experiment [3] the target is T1, bovine LPL. The experiment is described as follows: in vitro LPL assay using hypertriglyceridemia patient sera as substrate. The format is biochemical. The conditions noted are these: patient sera TG about 1000 mg/dL to about 1700 mg/dL, FIGS. 15A-D. As to the method:
as §1, §2, §3, §4

The test system of experiment [4] is VLDL isolated from human plasma. The experiment is described as follows: ApoC-III displacement study in VLDL isolated from human plasma. The format is binding. The conditions noted are these: SDS PAGE. As to the method:
VLDL or chylomicrons isolated from human plasma were incubated with an apoC-II mimetic peptide for 1 hour at 37° C. and washed 3 times with PBS using spin filter with 100 kDa cutoff membrane. […] ApoC-I, apoC-II, apoC-III, and apoE bands were identified by their corresponding size.

The mark [5] stands for this setting: concentrations from 100 pM to 10 μM, FIG. 12.
Where [6] appears, read: 0.25 μmol/kg of body weight intraperitoneal, FIG. 24.

Non-standard residues stand in square brackets, D forms with d. No end group written: not given here. *: point of attachment. Stearoyl = CCCCCCCCCCCCCCCCCC(=O)*; Palmitoyl = CCCCCCCCCCCCCCCC(=O)*; Nle = CCCC[C@H](N)C(=O)O; Aib = CC(C)(N)C(=O)O

As to “AKC18STYTGIFTDQVLSVLKGEE (AK(Stearoyl)STYTGIFTDQVLSVLKGEE) [C2thirdhelixStearylpos2]”, the “effect of lipidation on ability of C2thirdhelix to promote TG hydrolysis” value (“effect of lipidation” for short) in experiment [1] is recorded as “lipidation enhanced the ability of C2thirdhelix to promote TG hydrolysis”.

Take “AMSTYTGIFTDQVLSVLKC18GEE (AMSTYTGIFTDQVLSVLK(Stearoyl)GEE) [C2thirdhelixStearylpos17]”: in experiment [1], the “effect of lipidation” value was “lipidation enhanced the ability of C2thirdhelix to promote TG hydrolysis”. With “C18AMSTYTGIFTDQVLSVLKGEE (Stearoyl-AMSTYTGIFTDQVLSVLKGEE) [C2thirdhelixStearylpos1]”, in experiment [1], the “effect of lipidation” value is on record as “lipidation enhanced the ability of C2thirdhelix to promote TG hydrolysis”. Regarding “C18DYLKAVFEKKC18RDLYSKFTAAnLSTYTGIFTDQVLSVLKGEE (Stearoyl-DYLKAVFEKK(Stearoyl)RDLYSKFTAA[Nle]STYTGIFTDQVLSVLKGEE) [bi-acyl-Delta4]”, the “promoting TG hydrolysis in the presence of LPL” value in experiment [1] is listed as “capable of promoting TG hydrolysis in the presence of LPL”. As for “C18DYLKAVFEKLRDLYSKFTAAnLSTYTGIFTDQVLSVLKGEE (Stearoyl-DYLKAVFEKLRDLYSKFTAA[Nle]STYTGIFTDQVLSVLKGEE) [mono-acyl-Delta4]”, in experiment [1], the “promoting TG hydrolysis in the presence of LPL” value is on record as “capable of promoting TG hydrolysis in the presence of LPL”.

In the case of “DKVKEFLSEYWEKAKEFAPAVSTYTGIFTDQVLSVLKGEE [Delta13-31-PV]”, the “LPL activation / TG hydrolysis” value in experiment [1] is “promoted TG hydrolysis in vitro in a dose-dependent manner”. On to “DYLKAVFEKKC18RDLYSKFTPAMSTYTGIFTDQVLSVLKGEE (DYLKAVFEKK(Stearoyl)RDLYSKFTPAMSTYTGIFTDQVLSVLKGEE) [Delta4b-2]”, for which the TG hydrolysis result in experiment [1] (setting [5]) is recorded as “promoted TG hydrolysis in a dose-dependent manner”. Turning to “DYLKAVFEKLRDLYSKFFPAMSTYTGIFTDQVLSVLKGEE [Delta4b T18F]”, the TG hydrolysis entry in experiment [1] (setting [5]) is “promoted TG hydrolysis in a dose-dependent manner”. Regarding “DYLKAVFEKLRDLYSKFTAAKC16STYTGIFTDQVLSVLKGEE (DYLKAVFEKLRDLYSKFTAAK(Palmitoyl)STYTGIFTDQVLSVLKGEE) [Delta4c]”, the TG hydrolysis result in experiment [1] (peptide concentrations from 10 pM to 100 μM, FIG. 13) is given as “promoted TG hydrolysis”. “DYLKAVKC18EKLRDLYSKFTPAMSTYTGIFTDQVLSVLKGEE (DYLKAVK(Stearoyl)EKLRDLYSKFTPAMSTYTGIFTDQVLSVLKGEE) [Delta4b-1]”: in experiment [1] (setting [5]), the TG hydrolysis entry is “promoted TG hydrolysis in a dose-dependent manner”. On to “DYLKEVAibEKLRDLYEKAibFPAVSTYTGIFTDQVLSVLKGEE (DYLKEV[Aib]EKLRDLYEK[Aib]FPAVSTYTGIFTDQVLSVLKGEE) [Delta6T18F-PV-AIB7,17]”, for which, in experiment [1], the “LPL activation / TG hydrolysis” value is “activated LPL in vitro”.

In the case of “DYLKEVFEKLRDLYEKFFPAVSTYTGIFTDQVLSVLKGEE [Delta6T18F-PV]”, the “LPL activation / TG hydrolysis” value in experiment [1] was “activated LPL in vitro”. Moreover, the “time of maximum reduction of plasma TG” value in experiment [2] (0.1 μmol/kg intraperitoneally, after the peptide injection) is “about 6 hours”. Also, the “plasma TG” value in experiment [2] (0.1 μmol/kg of body weight intraperitoneally, FIG. 53) was “rapid reduction of plasma TG”.

Take “DYLKEVFEKLRDLYEKFTAALSTYTGIFTDQVLSVLKGEE (not fully specified) [Delta6L]”: in experiment [3], the LPL activation entry is on record as “activated LPL in vitro”. “DYLKEVFEKLRDLYEKFTAAnLSTYTGIFTDQVLSVLKGEENH2 (DYLKEVFEKLRDLYEKFTAA[Nle]STYTGIFTDQVLSVLKGEE-NH2; N-terminus assumed; SMILES CCCC[C@H](NC(=O)[C@H](C)NC(=O)[C@H](C)NC(=O)[C@@H](NC(=O)[C@H](Cc1ccccc1)NC(=O)[C@H](CCCCN)NC(=O)[C@H](CCC(=O)O)NC(=O)[C@H](Cc1ccc(O)cc1)NC(=O)[C@H](CC(C)C)NC(=O)[C@H](CC(=O)O)NC(=O)[C@H](CCCNC(=N)N)NC(=O)[C@H](CC(C)C)NC(=O)[C@H](CCCCN)NC(=O)[C@H](CCC(=O)O)NC(=O)[C@H](Cc1ccccc1)NC(=O)[C@@H](NC(=O)[C@H](CCC(=O)O)NC(=O)[C@H](CCCCN)NC(=O)[C@H](CC(C)C)NC(=O)[C@H](Cc1ccc(O)cc1)NC(=O)[C@@H](N)CC(=O)O)C(C)C)[C@@H](C)O)C(=O)N[C@@H](CO)C(=O)N[C@H](C(=O)N[C@@H](Cc1ccc(O)cc1)C(=O)N[C@H](C(=O)NCC(=O)N[C@H](C(=O)N[C@@H](Cc1ccccc1)C(=O)N[C@H](C(=O)N[C@@H](CC(=O)O)C(=O)N[C@@H](CCC(N)=O)C(=O)N[C@H](C(=O)N[C@@H](CC(C)C)C(=O)N[C@@H](CO)C(=O)N[C@H](C(=O)N[C@@H](CC(C)C)C(=O)N[C@@H](CCCCN)C(=O)NCC(=O)N[C@@H](CCC(=O)O)C(=O)N[C@@H](CCC(=O)O)C(N)=O)C(C)C)C(C)C)[C@@H](C)O)[C@@H](C)CC)[C@@H](C)O)[C@@H](C)O) [Delta6-NH]”: the “apoC-III displacement in VLDL” value in experiment [4] is “capable of displacing apoC-III”. Further, the “plasma TG” value in experiment [2] (setting [6]) was “significant reduction of plasma TG”. Consider “DYLKEVFEKLRDLYEKFTPALSTYTGIFTDQVLSVLKGEE [Delta6PL]”, for which the LPL activation entry in experiment [3] is recorded as “activated LPL in vitro”. Regarding “DYLKEVFEKLRDLYEKKC18TAAnLSTYTGIFTDQVLSVLKGEE (DYLKEVFEKLRDLYEKK(Stearoyl)TAA[Nle]STYTGIFTDQVLSVLKGEE) [Delta6b-A]”, the “apoC-III displacement in VLDL” value in experiment [4] is listed as “capable of displacing apoC-III”. Also, the “plasma TG” value in experiment [2] (setting [6]) is on record as “significant reduction of plasma TG”. On the same counts, the results for “DYLKEVFEKLRDLYEKKC18TPAnLSTYTGIFTDQVLSVLKGEE (DYLKEVFEKLRDLYEKK(Stearoyl)TPA[Nle]STYTGIFTDQVLSVLKGEE) [Delta6b-P]” are “capable of displacing apoC-III” and “significant reduction of plasma TG”.
